According to publication PMC9242090 (The Journal of Experimental Medicine, 2022):
Changes are numbered by the printed parent chain. No end group written: not given here.

T1: Peptide 29 (Pep29) (Plasmodium falciparum 3D7, also: biotin, position not given here)
T1 chain: NANPNANPNANPNAN

B1: CIS43_Var11 Fab (Fab, V domains shown)
VH: QRQLVQSGAEVKKPGASVKVSCKASGYTFTSYAIHWVRQAPGQRLEWMGWIKAGNGNTRYSQKFQDRVTITRDTSTTTAYMELSSLRSEDTAVYYCALLTVLTPDDAFDIWGQGTMVTVSS
VL: not shown
B2: CIS43_Var18 Fab (Fab, V domains shown)
VH: B1 VH with A97V
VL: not shown

Biological target: T1, Peptide 29 (Pep29)
Assay: BLI

Binder | binding result
B1 | binds
B2 | binds
